According to article PMC7969020:

Tested on: TDG (thymine DNA glycosylase), full length (Homo sapiens)
Assay: EMSA
Conditions: EMSA: 5 nM 32P DNA or mononucleosome, TDG 0-1 uM, buffer NB (composition not in material) + 0.2 mM MgCl2, 5% glycerol, 37 C 20 min; 5% native PAGE at 4 C

Substance	Kd [nM]
0-NCP-0 mononucleosome	185
0-NCP-30 mononucleosome	59
30-NCP-30 mononucleosome	62
601 DNA (naked, 147 bp)	38
